According to patent US12295992B2, “Use of ALDH1A and agonist, catalyst and inhibitor thereof” (SHANGHAI INSTITUTES FOR BIOLOGICAL SCIENCES, CHINESE …, priority 2017, dated 2025):

Biological target: T1, GST-UBE3A and ALDH1A2 proteins (Homo sapiens, UniProt O94788)
T1 construct: His6 (C); made in house; host or cells: E. coli BL21
T1 sequence (O94788 1-518): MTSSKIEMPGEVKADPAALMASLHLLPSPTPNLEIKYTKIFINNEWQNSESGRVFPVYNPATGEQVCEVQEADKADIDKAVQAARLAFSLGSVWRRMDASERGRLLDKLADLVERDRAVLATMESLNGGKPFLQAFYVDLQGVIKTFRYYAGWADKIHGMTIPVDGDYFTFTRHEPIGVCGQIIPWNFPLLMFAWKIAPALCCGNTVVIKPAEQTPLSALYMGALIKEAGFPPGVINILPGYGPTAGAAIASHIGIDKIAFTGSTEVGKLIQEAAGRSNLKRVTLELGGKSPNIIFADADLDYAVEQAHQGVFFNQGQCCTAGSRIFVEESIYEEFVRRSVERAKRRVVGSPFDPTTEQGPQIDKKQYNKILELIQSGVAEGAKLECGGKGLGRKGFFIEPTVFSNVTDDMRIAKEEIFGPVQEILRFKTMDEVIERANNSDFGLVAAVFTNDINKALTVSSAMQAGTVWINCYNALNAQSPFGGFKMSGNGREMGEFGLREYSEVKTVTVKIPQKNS
Assay: GST pull-down competition of UBE3A-ALDH1A2 binding
Details: peptide added in GST pull-down experiment
Description: GST, GST-UBE3A and the truncated GST-UBE3A proteins were induced to express in BL21 competent bacterium (NEB) and purified using glutathione agarose (GE Healthcare). ALDH1A1-His6, ALDH1A2-His6 and ALDH1A3-His6 proteins were purified using Ni-NTA agarose (Qiagen). The purified ALDH1A2-His6 and GST-UBE3A proteins were incubated in a pull-down buffer (50 mM Tris-Cl, pH 8.0, 200 mM NaCl, 1 mM EDTA, 1% NP-40, 1 mM DTT, 10 mM MgCl2) at 4° C. for 2 hours. The beads were washed 4 times with the pull-down buffer and analyzed by immunoblotting. The pull-down analysis of other proteins followed the same steps.
Since there was no known substrate for UBE3A to explain the association between the onset of ASD and UBE3A overactivation from a mechanical perspective (Glessner et al., 2009), human UBE3A protein was firstly used as a bait to screen for unknown substrate proteins by yeast two-hybrid method. […] Retinoic acid or RA, as an active metabolite of vitamin A (retinol), is required for the development and growth of higher animals including human. The synthesis of RA is accomplished in two steps, including retinol dehydrogenase (RDH10), which catalyzes retinol into retinal, and retinal dehydrogenase (ALDH1A1, ALDH1A 2, and ALDH1A 3 families which catalyze retinal into retinoic acid). Endogenous or exogenously expressed UBE3A and ALDH1A2 proteins were confirmed to form complexes in HEK-293FT cells by immunoprecipitation experiments (FIG. 2b-c). In immunofluorescence experiments, Flag-tagged and RFP-tagged UBE3A and ALDH1A2 proteins were co-localized in the cytoplasm of […] cell SH-SY5Y (FIG. 2d). The GST pull-down experiment further confirmed that the recombinant proteins UBE3A and ALDH1A2 could bind directly in vitro (FIG. 2e) and bound through the N-terminal (amino acid position of 1-280) of UBE3A (FIG. 2f). Since the ALDH1A2 protein had high sequence homology to other family members of ALDH1A1 and ALDH1A 3, it was further verified that UBE3A could bind directly to ALDH1A1 and ALDH1A3, respectively, in vitro and in vivo (FIG. 2g-j). […]

Substance	blocking of binding between GST-UBE3A and ALDH1A2 proteins
peptide-3: SEQ ID No: 11 AEALVQSFRKVKQHTKEELKSLQAKDEDKD, targets UBE3A-ALDH1A2 binding region (peptide-3)	could block the bonding between GST-UBE3A and ALDH1A2 proteins in different extend
peptide-1: SEQ ID No: 9 ASRMKRAAAKHLIERYYHQLTEGCG, targets UBE3A-ALDH1A2 binding region (peptide-1)	could block the bonding between GST-UBE3A and ALDH1A2 proteins in different extend
peptide-2: SEQ ID No: 10 NNAAAIKALELYKINAKLCDPH, targets UBE3A-ALDH1A2 binding region (peptide-2)	could block the bonding between GST-UBE3A and ALDH1A2 proteins in different extend
